In the experiment the target is T1, EGFR蛋白 (UniProt P00533 25-645, limits assumed).
T1 construct: The construct is not described; also called 表皮生长因子受体
In words: affinity constant; method not stated.

B1: EGFR ScFv (抗EGFR单链抗体) (scFv)
scFv: QVQLQQWGGGVVQPGRSLRLSCAASGFTFSSYAMHWVRQAPGKGLEWVAVISYDGSNKYYADSVKGRFTISRDNSKNTLYLQMDSLRAEDTAVYYCARSGRYFDWLLPFDYGGGGSGGGGSELALTQPPSASVAPGKTARITCGGNNIGSKSVHWYQQKPGQAPVLVIYYDSDRPSGIPERFSGSNSGNTATLTISRVEAGDEADYYCQVWDSSSDQGVFGGGTQLTVL
notes: Human scFv from a phage library, expressed in E. coli; also called 抗EGFR ScFv
By Kd is commonly meant the equilibrium constant for the complex coming apart. Read a low Kd as higher affinity. In turn, B1 showed a Kd of 0.284 nM.

The values above are taken from CN108059681A (BEIJING GEGEN BIOTECHNOLOGY CO LTD; YICON BEIJING MEDICAL …, dated 2018).
